Our source for the % positive (CAR+ Jurkat cells) values is patent US20230174651A1.

The target of experiment [1] is CD79b CAR with CD8α hinge as the spacer. The experiment can be described thus: flow cytometry, Jurkat cells transduced with construct CAR-5, fluorescently labelled second antibody; gate set on untransduced (UTD) cells. In general terms: A flow cytometer gives signals particle by particle.
Target sequence (P01732 138-182): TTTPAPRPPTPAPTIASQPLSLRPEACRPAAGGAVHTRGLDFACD
Experiment [2] shares this target. The experiment can be described thus: flow cytometry, Jurkat cells transduced with construct CAR-4, fluorescently labelled second antibody; gate set on untransduced (UTD) cells.
Experiment [3] shares this target. Briefly: flow cytometry, Jurkat cells transduced with construct CAR-1, fluorescently labelled second antibody; gate set on untransduced (UTD) cells.
Experiment [4] shares this target. Briefly: flow cytometry, Jurkat cells transduced with construct CAR-3, fluorescently labelled second antibody; gate set on untransduced (UTD) cells.
The target is the same in experiment [5]. The experiment can be described thus: flow cytometry, Jurkat cells transduced with construct CAR-6, fluorescently labelled second antibody; gate set on untransduced (UTD) cells.
For experiment [6] the target is unchanged. Briefly: flow cytometry, Jurkat cells transduced with construct CAR-2, fluorescently labelled second antibody; gate set on untransduced (UTD) cells.

B1: mouse FC version of CD8B575 (purified from mouse hybridoma clone) (antibody, V domains shown)
VH: QVQLQQSGGGLVQPGGSLKLSCAASGFTFSNYYMSWARQTPEKRLEWVAYISNDGDATYYPDSVKGRFTISRDNAKNTLYLQMSSLKSEDTAMYYCTREDYYSDYWFASWGQGTTVTVSS
VL: DIVMTQSQKFMSTTIEDRVSITCKASQNVGTAVAWYQQKPGQSPKLLIYSTSNRYTGVPDRFTGSGSGTDFTLTISNIQSEDLADYFCQQYSSYPLTFGGGTKLEIK
Consider B1, for which the % positive (CAR+ Jurkat cells) came out at 84.5% in experiment [1]; 54.1% in experiment [2]; 13% in experiment [3]; 15.9% in experiment [4]; 84% in experiment [5]; 41.7% in experiment [6].
